{"source": "paper PMC11266426", "about": "“Membrane remodeling by FAM92A1 during brain development regulates neuronal morphology, synaptic function, and cognition” (Nature Communications, 2024)", "molecular_target": "the molecule itself", "experiment": "SEC-MALS; purified proteins on a Superdex 200 10/300 column at 4 °C, flow 0.5 mL/min; MiniDAWN light scattering and Optilab dRI detectors"}
{"protein": "Human FAM92A1 BAR domain (residues 1-219), wild type (domain or fragment, UniProt A1XBS5 1-219, looked up, FAM92A1 (CIBAR1), human, residues 1-219 cloned into the pHAT vector between SpeI and NsiI; residues 2-211 form the BAR domain in the crystal structure; Homodimer by crystal structure and SEC-MALS; The pHAT vector probably adds the His tag at the N-terminus (surmise); also called FAM92A1 N-terminal region; WT; source: E. coli BL21 (DE3), purified (Ni-NTA, gel filtration on Superdex 75)) MMRRTLENRNAQTKQLQTAVSNVEKHFGELCQIFAAYVRKTARLRDKADLLVNEINAYAATETPHLKLGLMNFADEFAKLQDYRQAEVERLEAKVVEPLKTYGTIVKMKRDDLKATLTARNREAKQLTQLERTRQRNPSDRHVISQAETELQRAAMDASRTSRHLEETINNFERQKMKDIKTIFSEFITIEMLFHGKALEVYTAAYQNIQNIDEDEDLE", "values": [{"measurement": "stoichiometry N", "result": 2}]}
